Values quoted from earlier work as cited in patent US20060222641A1, “Method and composition for preventing or reducing edema, deep vein thrombosis and/or pulmonary embolism” (priority 2003, published 2006).

System: fibrinolytic activity in the plasma
Conditions: oral administration

B1: nattokinase: serine proteinase of approximately 275 amino acids, approximately 27.7 kDa, fibrinolytic enzyme from natto (Bacillus subtilis) (protein)
chain: AQSVPYGISQIKAPALHSQGYTGSNVKVAVIDSGIDSSHPDLNVRGGASFVPSETNPYQDGSSHGTHVAGTIAALNNSIGVLGVAPSASYAVKVLDSTGSGQYSWIINGIEWAISNNMGVINMSLGGPSGSTALKTVVDKAVSSGIVVAAAAGNEGSSGSSSTVGYPAKYPSTIAVGAVNSSNQRASFSSAGSELDVMAPGVSIQSTLPGGTYGAYNGTSMATPHVAGAAALILSKHPTWTNAQVRDRLESTATYLGNSFYYGKGLINVQAAAQ
modifications: Bacillus Subtilis
For B1, the “Fibrinolytic activity in the plasma” value is given as “significant enhancement”.
